Test results taken from article PMC11470070, “Structural basis for synthase activation and cellulose modification in the E. coli Type II Bcs secretion system” (Nature Communications, 2024).

Key:
[1] = target: T1, BcsE (in the BcsR2Q2AB6E2F2G3 Bcs macrocomplex) (Escherichia coli, UniProt P37657); experiment: cryo-EM structure of the complex; type: binding; settings: intercalated c-di-GMP dimer per BcsE protomer at the REC*-GGDEF* dual I-site (R306ATD, R415TGD); 2-4 uM c-di-GMP, 5 mM MgCl2, pH 8.0
T1 construct: full-length, N-terminal Strep II tag; co-expressed Bcs macrocomplex in E. coli NiCo21(DE3), anti-FLAG purified; with Cellulose biosynthesis protein BcsF; Cellulose biosynthesis protein BcsR; Cellulose biosynthesis protein BcsQ; Cellulose synthase catalytic subunit [UDP-forming]; Cellulose biosynthesis protein BcsG

[2] = target: T2, BcsQ (BcsR2Q2 in the Bcs macrocomplex) (Escherichia coli, UniProt P0DP92); experiment: cryo-EM structure of the complex; type: binding; settings: nucleotide-driven BcsQ sandwich dimer; text says ATP-bound, but 10 uM AppCp (non-hydrolysable analogue) was in the purification buffers; 5 mM MgCl2, pH 8.0
T2 construct: full-length untagged BcsQ with His-BcsR; co-expressed Bcs macrocomplex in E. coli NiCo21(DE3), anti-FLAG purified; nucleotide-driven sandwich dimer; with Cellulose biosynthesis protein BcsR; Cellulose synthase catalytic subunit [UDP-forming]; Cellulose biosynthesis protein BcsF; Cellulose biosynthesis protein BcsG
T2 sequence (P0DP92 1-250): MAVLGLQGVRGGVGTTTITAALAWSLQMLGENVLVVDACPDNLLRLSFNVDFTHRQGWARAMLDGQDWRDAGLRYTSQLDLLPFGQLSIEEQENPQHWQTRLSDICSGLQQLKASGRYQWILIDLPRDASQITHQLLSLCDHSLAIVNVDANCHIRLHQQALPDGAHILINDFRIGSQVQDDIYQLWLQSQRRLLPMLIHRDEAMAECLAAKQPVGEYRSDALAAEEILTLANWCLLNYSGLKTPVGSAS
T2 sequence (P0ADJ3 1-62 partner): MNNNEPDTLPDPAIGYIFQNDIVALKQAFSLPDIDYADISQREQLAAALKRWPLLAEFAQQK

[3] = target: the molecule itself; experiment: cryo-EM structure; Bcs macrocomplex co-expressed in E. coli and purified on anti-FLAG gel by BcsA^HA-FLAG, 20 mM HEPES pH 8.0, 120 mM NaCl, 5 mM MgCl2, 10 μM AppCp, 4 μM c-di-GMP, 0.01% LM-NPG; class of the c-di-GMP-saturated macrocomplex with local refinements; the BcsB crown refined from all particles
[4] = target: T3, BcsA cellulose synthase (BcsA^HA-FLAG) (E. coli, UniProt P37653 1-872); experiment: cryo-EM structure; same sample and grids as a1; class of particles with a c-di-GMP-free BcsA synthase (non-saturated macrocomplex), with local refinements; settings: both partners purified
T3 construct: BcsA, E. coli; amplified within the genomic region bcsRQA^HA-FLAGB from genomic DNA of the E. coli 1094 bcsA^HA-FLAG strain; domains NTD, TMD, GT, PilZ, C-terminal tail; Expressed from the whole genomic region bcsRQAB of strain 1094; One copy in the macrocomplex; source: for the BcsF variants E. coli Δbcs BL21*(DE3)
T3 sequence: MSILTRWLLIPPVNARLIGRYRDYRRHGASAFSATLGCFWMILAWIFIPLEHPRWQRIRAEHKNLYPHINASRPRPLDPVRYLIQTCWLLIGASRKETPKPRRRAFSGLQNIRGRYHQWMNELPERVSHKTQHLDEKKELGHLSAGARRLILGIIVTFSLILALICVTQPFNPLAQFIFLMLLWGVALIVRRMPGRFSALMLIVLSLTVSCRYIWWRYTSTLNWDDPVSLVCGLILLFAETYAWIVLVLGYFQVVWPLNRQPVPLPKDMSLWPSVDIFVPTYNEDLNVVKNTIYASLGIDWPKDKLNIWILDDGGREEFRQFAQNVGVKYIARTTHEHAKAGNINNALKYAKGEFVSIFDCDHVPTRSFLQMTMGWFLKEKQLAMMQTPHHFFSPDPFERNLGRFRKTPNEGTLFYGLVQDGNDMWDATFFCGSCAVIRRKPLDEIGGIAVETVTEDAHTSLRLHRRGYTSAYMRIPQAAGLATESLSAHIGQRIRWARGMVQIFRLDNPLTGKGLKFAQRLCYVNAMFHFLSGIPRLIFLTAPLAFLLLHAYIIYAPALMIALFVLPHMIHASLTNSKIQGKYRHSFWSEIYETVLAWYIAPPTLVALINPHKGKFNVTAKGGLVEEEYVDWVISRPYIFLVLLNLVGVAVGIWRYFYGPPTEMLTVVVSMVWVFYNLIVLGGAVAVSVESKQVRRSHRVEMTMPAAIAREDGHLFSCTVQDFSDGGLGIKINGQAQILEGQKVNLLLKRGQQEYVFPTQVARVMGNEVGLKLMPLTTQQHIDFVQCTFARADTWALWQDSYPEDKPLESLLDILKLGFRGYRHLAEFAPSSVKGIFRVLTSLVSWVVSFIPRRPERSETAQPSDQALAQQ

[5] = target: the molecule itself; experiment: as above

Molecule: Nc1nc2c(ncn2[C@@H]2O[C@@H]3COP(=O)(O)O[C@H]4[C@@H](O)[C@H](n5cnc6c(=O)[nH]c(N)nc65)O[C@@H]4COP(=O)(O)O[C@H]3[C@H]2O)c(=O)[nH]1 [c-di-GMP]
- cryo-EM structure of the complex [1]: An intercalated c-di-GMP dimer is found at each cis-interdomain interface of a closed BcsE

Molecule: Nc1ncnc2c1ncn2[C@@H]1O[C@H](COP(=O)(O)OP(=O)(O)OP(=O)(O)O)[C@@H](O)[C@H]1O [ATP]
- cryo-EM structure of the complex [2]: the BcsR copies stabilize the ATP-bound BcsQ apical dimer

B1: BcsQ (natural protein, E. coli)
chain: MAVLGLQGVRGGVGTTTITAALAWSLQMLGENVLVVDACPDNLLRLSFNVDFTHRQGWARAMLDGQDWRDAGLRYTSQLDLLPFGQLSIEEQENPQHWQTRLSDICSGLQQLKASGRYQWILIDLPRDASQITHQLLSLCDHSLAIVNVDANCHIRLHQQALPDGAHILINNFRIGSQVQDDIYQLWLQSQRRLLPMLIHRDEAMAECLAAKQPVGEYRSDALAAEEILTLANWCLLNYSGLKTPVGSKS
notes: BcsQ, E. coli; amplified within the genomic region bcsRQA^HA-FLAGB of E. coli 1094; the strain used is 1094; also called SIMIBI family NTPase BcsQ
- stoichiometry N [3]: 2

B2: BcsB co-polymerase (natural protein, E. coli, UniProt P37652 26-779, looked up)
chain: TPATQPLINAEPAVAAQTEQNPQVGQVMPGVQGADAPVVAQNGPSRDVKLTFAQIAPPPGSMVLRGINPNGSIEFGMRSDEVVTKAMLNLEYTPSPSLLPVQSQLKVYLNDELMGVLPVTKEQLGKKTLAQMPINPLFISDFNRVRLEFVGHYQDVCEKPASTTLWLDVGRSSGLDLTYQTLNVKNDLSHFPVPFFDPSDNRTNTLPMVFAGAPDVGLQQASAIVASWFGSRSGWRGQNFPVLYNQLPDRNAIVFATNDKRPDFLRDHPAVKAPVIEMINHPQNPYVKLLVVFGRDDKDLLQAAKGIAQGNILFRGESVVVNEVKPLLPRKPYDAPNWVRTDRPVTFGELKTYEEQLQSSGLEPAAINVSLNLPPDLYLMRSTGIDMDINYRYTMPPVKDSSRMDISLNNQFLQSFNLSSKQEANRLLLRIPVLQGLLDGKTDVSIPALKLGATNQLRFDFEYMNPMPGGSVDNCITFQPVQNHVVIGDDSTIDFSKYYHFIPMPDLRAFANAGFPFSRMADLSQTITVMPKAPNEAQMETLLNTVGFIGAQTGFPAINLTVTDDGSTIQGKDADIMIIGGIPDKLKDDKQIDLLVQATESWVKTPMRQTPFPGIVPDESDRAAETRSTLTSSGAMAAVIGFQSPYNDQRSVIALLADSPRGYEMLNDAVNDSGKRATMFGSVAVIRESGINSLRVGDVYYVGHLPWFERVWYALANHPILLAVLAAISVILLAWVLWRLLRIISRRRLNPDNE
notes: BcsB, E. coli; amplified within the genomic region bcsRQA^HA-FLAGB of E. coli 1094; periplasmic modules CBD1-FD1-CBD2-FD2 and a C-terminal tail-anchor (TA); Six copies in the macrocomplex; the strain used is 1094; also called BcsB^TA (tail-anchor); periplasmic crown
- stoichiometry N [3]: 6

B3: BcsG pEtN-transferase (enzyme, E. coli)
chain: MTQFTQNTAMPSSLWQYWRGLSGWNFYFLVKFGLLWAGYLNFHPLLNLVFAAFLLMPLPRYSLHRLRHWIALPIGFALFWHDTWLPGPESIMSQGSQVAGFSTDYLIDLVTRFINWQMIGAIFVLLVAWLFLSQWIRITVFVVAILLWLNVLTLAGPSFSLWPAGQPTTTVTTTGGNAAATVAATGGAPVVGDMPAQTAPPTTANLNAWLNNFYNAEAKRKSTFPSSLPADAQPFELLVINICSLSWSDIEAAGLMSHPLWSHFDIEFKNFNSATSYSGPAAIRLLRASCGQTSHTNLYQPANNDCYLFDNLSKLGFTQHLMMGHNGQFGGFLKEVRENGGMQSELMDQTNLPVILLGFDGSPVYDDTAVLNRWLDVTEKDKNSRSATFYNTLPLHDGNHYPGVSKTADYKARAQKFFDELDAFFTELEKSGRKVMVVVVPEHGGALKGDRMQVSGLRDIPSPSITDVPVGVKFFGMKAPHQGAPIVIEQPSSFLAISDLVVRVLDGKIFTEDNVDWKKLTSGL
notes: BcsG, E. coli; amplified within the genomic region bcsEFG; N-terminal domain of 5 transmembrane helices, 48-residue linker, C-terminal pEtN-transferase domain (the last not resolved in the maps); Three copies in the macrocomplex; also called BcsG^NTD; BcsG3
- stoichiometry N [4]: 3
- stoichiometry N [5]: 3

B4: BcsF (natural protein, E. coli)
chain: MMTISDIIEIIVVCALIFFPLGYLARHSLRRIRDTLRLFFAKPRYVKPAGTLRRTEKARATKK
notes: BcsF, E. coli; amplified within the genomic region bcsEFG; single transmembrane helix, amphipathic helical extension and cytosolic C-terminal tail; Two copies in the macrocomplex; also called inner membrane polypeptide BcsF; source: for the BcsF variants experiment E. coli Δbcs BL21*(DE3)
- stoichiometry N [5]: 2
